Test system: IKK-phosphorylated IκBα in the IκBα/NF-κB complex
Sequence (chain, as listed by the source): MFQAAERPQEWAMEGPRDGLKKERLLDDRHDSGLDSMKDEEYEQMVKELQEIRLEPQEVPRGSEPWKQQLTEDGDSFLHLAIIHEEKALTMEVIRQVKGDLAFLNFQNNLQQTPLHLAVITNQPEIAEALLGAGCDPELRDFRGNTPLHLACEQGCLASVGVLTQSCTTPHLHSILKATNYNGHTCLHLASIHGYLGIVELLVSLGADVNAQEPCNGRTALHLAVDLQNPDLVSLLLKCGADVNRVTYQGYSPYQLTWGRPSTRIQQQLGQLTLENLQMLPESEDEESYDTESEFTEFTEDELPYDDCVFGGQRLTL

Drosophila Slimb protein, FLAG-tagged
in vitro ubiquitination of pIκBα in the presence of E1 and E2 (UBC5C), efficiency against human and mouse β-TrCP (fold less efficient): > 10

From patent US20030166587
